How the values were obtained:
Type in all cases: cell-based
[1] = tested on: 180-kDa ErbB receptors and MAP-kinase (Erk-1 and Erk-2) in D24 cells; test: Tyrosine phosphorylation and MAPK activation, immunoblotting; settings: 100 ng/ml, five minutes
Experimental: (§1) Derivatives of 32D cells expressing ErbB-4, either alone (D4 cells) or in combination with ErbB-2 (D24 cells) were incubated for 5 minutes at 37° C. with either NRG-4 or NRG-1β (each at 100 ng/ml). Whole cell extracts were then prepared, resolved by gel electrophoresis, and transferred to a nitrocellulose filter. The upper portion of the filter was immunoblotted with antibodies to phosphotyrosine (P-Tyr, the 150-200 kDa region is shown) or an antibody directed at the activated doubly phosphorylated form of the MAPK (Erk1 and Erk2, the 40-50 kDa region is shown). Antibodies were incubated with a secondary reagent coupled to horseradish peroxidase, allowing subsequent detection by chemiluminescence.
(§2) For receptor activation studies, derivatives of the 32D cell line were resuspended in phosphate-buffered solution (PBS) and incubated at 22 C for 15 minutes before adding growth factors and incubating for five minutes at 37 C. Cells were then pelleted and lysed in ice cold solubilization buffer [50 mM Tris-HCl pH 7.5, 150 mM NaCl, 1% Nonidet-P40, 0.5% Na-deoxycholate, 0.1% sodium dodecyl sulfate (SDS), 1.5 mM EDTA, 1.5 mM MgCl2, 2 mM Na-orthovanadate, 1 mM phenylmethylsulfonyl fluoride (PMSF), 10 µg/ml aprotinin and 10 µg/ml leupeptin] and left on ice for 15 minutes. The whole cell extract was then cleared by centrifugation (12,000×g for 10 minutes at 4 C), immediately boiled in reducing gel sample buffer, and resolved by 10% SDS PAGE before being transferred onto nitrocellulose. Filters were blocked in TBST buffer (0.02 M Tris-HCl pH 7.5, 0.15 M NaCl, 0.05% Tween-20) containing 1% milk for 40 minutes at 22 C, blotted with primary antibodies in TBST overnight at 4 C, followed by conjugation with a secondary antibody linked to horseradish peroxidase and subsequent detection by chemiluminescence (Amersham Corp.).
(§3) Evidently, NRG-4 binds to ErbB-4 and mediates cell proliferation through activation of this receptor. Because other ErbB ligands stimulate cell growth via tyrosine phosphorylation of their respective receptors and activation of the intervening mitogen-activated protein kinase (MAPK) cascade, these two signaling steps were tested in NRG-4-responsive myeloid cells expressing ErbB-4 (D4 and D24 cell lines). Cells were stimulated with 100 ng/ml of activating ligand for five minutes, followed by lysis and analysis by immunoblotting.

[2] = tested on: 180-kDa ErbB receptors and MAP-kinase (Erk-1 and Erk-2) in D4 cells; test: as above; settings: 100 ng/ml, five minutes
Experimental: as §1, §2, §3

[3] = tested on: D24 cells (32D co-expressing ErbB-4 and ErbB-2); test: Long-term cell survival assay in the absence of IL-3 (MTT); settings: ligand 100 ng/ml, MTT daily
Experimental: (§4) FIG. 3b show survival effect of NRG-4 on ErbB-expressing derivatives of 32D cells. The indicated derivatives of 32D cells were incubated for various time intervals in the absence of IL-3. […] For control, cells were incubated with medium conditioned by IL-3-producing cells (open triangles), or with no factor (open circles). The extent of cell proliferation was determined daily by using the calorimetric MTT assay. The data presented are the mean±S.D. of 4 determinations. Note that co-expression of ErbB-1 and ErbB-2 (D12 cells) enabled cell survival in the absence of IL-3. The experiment was repeated twice with similar results.
(§5) The establishment of a series of interleukin 3 (IL-3)-dependent 32D myeloid cells expressing all combinations of ErbB proteins has been described (Alimandi et al., 1997; Pinkas-Kramarski et al., 1996; Shelly et al., 1998). Cells were maintained in RPMI medium with 10% fetal bovine serum (FBS) and dilute IL3-containing conditioned medium. […] Cell survival was determined 24 hours later, or after the indicated time intervals, by MTT assay, as previously described (Mosman, 1983). MTT (0.05 mg/ml) was incubated with the analyzed cells for 2 hours at 37 C. Living cells can transform the tetrazolium ring into dark blue formazan crystals, that can be quantified by reading the optical density at 540-630 nm after lysis of the cells with acidic isopropanol. […]

[4] = tested on: D4 cells (32D expressing ErbB-4); test: as above; settings: ligand 100 ng/ml, MTT daily
Experimental: as §4, §5

B1: NRG-4: synthetic refolded mouse EGF-like domain of NRG-4 (residues 4 to 50, SEQ ID NO:2) (peptide, listed as Mus musculus)
chain: MPTDHEQPCGPRHRSFCLNGGICYVIPTIPSPFCRCIENYTGARCEEVFLPSSSIPSESNLSAAFVVLAVLLTLTIAALCFLCRKGHLQRASSVQCEISLVETNNTRTRHSHREH
- activation of MAP-kinase (Erk-1 and Erk-2), D24 cells [1]: accompanying activation of MAP-kinase
- phosphorylation of the 180-kDa ErbB receptors, D24 cells [1]: stimulated phosphorylation
- activation of MAP-kinase (Erk-1 and Erk-2), D4 cells [2]: accompanying activation of MAP-kinase
- phosphorylation of the 180-kDa ErbB receptors, D4 cells [2]: stimulated phosphorylation
- survival of D24 cells in the absence of IL-3 [3]: more robust, and akin to the NRG-1-treated controls
- survival of D4 cells in the absence of IL-3 [4]: stimulated the survival
